The values that follow come from paper PMC7565927.

Data set [1] can be described thus: anti-V5 Western blot of CHO conditioned media. As to conditions: glycan lost; control: WT WIF1-V5-His.
A short description of data set [2]: anti-V5 Western blot of CHO cell lysates, GAPDH-normalised. As to conditions: glycan lost; control: WT WIF1-V5-His.

B1: WIF1 (Wnt Inhibitory Factor 1): T255A (protein)
parent chain: MARRRAFPAFALRLWSILPCLLLLRADAGQPPEESLYLWIDAHQARVLIGFEEDILIVSEGKMAPFTHDFRKAQQRMPAIPVNIHSMNFTWQAAGQAEYFYEFLSLRSLDKGIMADPTVNVPLLGTVPHKASVVQVGFPCLGKQDGVAAFEVNVIVMNSEGNTILRTPQNAIFFKTCQQAECPGGCRNGGFCNERRVCECPDGFYGPHCEKALCIPRCMNGGLCVTPGFCICPPGFYGVNCDKANCSTTCFNGGTCFYPGKCICPPGLEGEQCELSKCPQPCRNGGKCIGKSKCKCPKGYQGDLCSKPVCEPGCGAHGTCHEPNKCQCREGWHGRHCNKRYGASLMHAPRPAGAGLERHTPSLKKAEDRRDPPESNYIW
For the protein B1, in data set [1], the “expression_or_secretion, percent_of_wt” value was “decreases, decrease of more than 50% vs 100”. Besides, the localisation_or_trafficking entry in data set [2] is listed as “increases”.

B2: WIF1 (Wnt Inhibitory Factor 1): T255/319A (protein)
parent chain: B1 parent chain
B2: the “expression_or_secretion, percent_of_wt” value in data set [1] was “decreases, decrease of more than 50% vs 100”. Further, the localisation_or_trafficking result in data set [2] was “increases”.
